Results: patent publication US12679878B2, “CRF2 receptor agonists and their use in therapy” (SANOFI, priority 2020, dated 2026)
Starred links: 1 amine or outer side, 2 acyl side, 3 side chain; linkers in the order of their positions; H or OH if unused. Non-standard residues stand in square brackets, D forms with d. Groups on a side chain read outwards from the residue. No end group written: not given here. *: point of attachment. C18 diacid = O=C(O)CCCCCCCCCCCCCCCCC(=O)*; γGlu = O=C(O)[C@H](CCC(=O)[*:2])N[*:1]; AEEA = NCCOCCOCC(=O)O; Aib = CC(C)(N)C(=O)O

T1: CRF1R receptor (anti-target) (UniProt P34998 24-415, limits assumed)
T1 sequence (looked up): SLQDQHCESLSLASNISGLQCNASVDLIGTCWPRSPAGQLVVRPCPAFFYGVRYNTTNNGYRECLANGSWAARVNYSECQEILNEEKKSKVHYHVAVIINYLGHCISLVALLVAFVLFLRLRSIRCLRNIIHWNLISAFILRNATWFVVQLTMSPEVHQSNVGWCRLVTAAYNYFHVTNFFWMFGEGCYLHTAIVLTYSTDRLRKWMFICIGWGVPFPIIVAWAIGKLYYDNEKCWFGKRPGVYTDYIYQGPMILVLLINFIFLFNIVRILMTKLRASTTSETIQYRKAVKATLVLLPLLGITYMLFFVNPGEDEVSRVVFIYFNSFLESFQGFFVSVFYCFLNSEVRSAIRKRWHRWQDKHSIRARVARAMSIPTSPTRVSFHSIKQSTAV


The binders below were run against T1, CRF1R receptor (anti-target) (assay: cell-based or functional assay).

Row | Binder | EC50 [nM] 0% HSA (cAMP, HTRF) [nM] | Emax (%) (100% = Sauvagine at 100 nM)
1 | IVLSLDVPIKLK([AEEA-AEEA-γGlu-C18 diacid])QILLKQERQK[Aib]QREKAETNKQILAQV-NH2 (N-terminus assumed; SMILES CC[C@H](C)[C@H](N)C(=O)N[C@H](C(=O)N[C@@H](CC(C)C)C(=O)N[C@@H](CO)C(=O)N[C@@H](CC(C)C)C(=O)N[C@@H](CC(=O)O)C(=O)N[C@H](C(=O)N1CCC[C@H]1C(=O)N[C@H](C(=O)N[C@@H](CCCCN)C(=O)N[C@@H](CC(C)C)C(=O)N[C@@H](CCCCNC(=O)COCCOCCNC(=O)COCCOCCNC(=O)CC[C@H](NC(=O)CCCCCCCCCCCCCCCCC(=O)O)C(=O)O)C(=O)N[C@@H](CCC(N)=O)C(=O)N[C@H](C(=O)N[C@@H](CC(C)C)C(=O)N[C@@H](CC(C)C)C(=O)N[C@@H](CCCCN)C(=O)N[C@@H](CCC(N)=O)C(=O)N[C@@H](CCC(=O)O)C(=O)N[C@@H](CCCNC(=N)N)C(=O)N[C@@H](CCC(N)=O)C(=O)N[C@@H](CCCCN)C(=O)NC(C)(C)C(=O)N[C@@H](CCC(N)=O)C(=O)N[C@@H](CCCNC(=N)N)C(=O)N[C@@H](CCC(=O)O)C(=O)N[C@@H](CCCCN)C(=O)N[C@@H](C)C(=O)N[C@@H](CCC(=O)O)C(=O)N[C@H](C(=O)N[C@@H](CC(N)=O)C(=O)N[C@@H](CCCCN)C(=O)N[C@@H](CCC(N)=O)C(=O)N[C@H](C(=O)N[C@@H](CC(C)C)C(=O)N[C@@H](C)C(=O)N[C@@H](CCC(N)=O)C(=O)N[C@H](C(N)=O)C(C)C)[C@@H](C)CC)[C@@H](C)O)[C@@H](C)CC)[C@@H](C)CC)C(C)C)C(C)C) [peptide of SEQ ID NO: 109] | > 100 | 1.1
2 | IVLSLDVPIKLK([AEEA-AEEA-γGlu-C18 diacid])QILLKQERQK[Aib]QRQKAETNKQILAQV-NH2 (N-terminus assumed; SMILES CC[C@H](C)[C@H](N)C(=O)N[C@H](C(=O)N[C@@H](CC(C)C)C(=O)N[C@@H](CO)C(=O)N[C@@H](CC(C)C)C(=O)N[C@@H](CC(=O)O)C(=O)N[C@H](C(=O)N1CCC[C@H]1C(=O)N[C@H](C(=O)N[C@@H](CCCCN)C(=O)N[C@@H](CC(C)C)C(=O)N[C@@H](CCCCNC(=O)COCCOCCNC(=O)COCCOCCNC(=O)CC[C@H](NC(=O)CCCCCCCCCCCCCCCCC(=O)O)C(=O)O)C(=O)N[C@@H](CCC(N)=O)C(=O)N[C@H](C(=O)N[C@@H](CC(C)C)C(=O)N[C@@H](CC(C)C)C(=O)N[C@@H](CCCCN)C(=O)N[C@@H](CCC(N)=O)C(=O)N[C@@H](CCC(=O)O)C(=O)N[C@@H](CCCNC(=N)N)C(=O)N[C@@H](CCC(N)=O)C(=O)N[C@@H](CCCCN)C(=O)NC(C)(C)C(=O)N[C@@H](CCC(N)=O)C(=O)N[C@@H](CCCNC(=N)N)C(=O)N[C@@H](CCC(N)=O)C(=O)N[C@@H](CCCCN)C(=O)N[C@@H](C)C(=O)N[C@@H](CCC(=O)O)C(=O)N[C@H](C(=O)N[C@@H](CC(N)=O)C(=O)N[C@@H](CCCCN)C(=O)N[C@@H](CCC(N)=O)C(=O)N[C@H](C(=O)N[C@@H](CC(C)C)C(=O)N[C@@H](C)C(=O)N[C@@H](CCC(N)=O)C(=O)N[C@H](C(N)=O)C(C)C)[C@@H](C)CC)[C@@H](C)O)[C@@H](C)CC)[C@@H](C)CC)C(C)C)C(C)C) [peptide of SEQ ID NO: 108] | > 100 | -2
3 | IVLSLDVPIKLK([AEEA-AEEA-γGlu-C18 diacid])QILLEQERQK[Aib]QREQAETNKQILERV-NH2 (N-terminus assumed; SMILES CC[C@H](C)[C@H](N)C(=O)N[C@H](C(=O)N[C@@H](CC(C)C)C(=O)N[C@@H](CO)C(=O)N[C@@H](CC(C)C)C(=O)N[C@@H](CC(=O)O)C(=O)N[C@H](C(=O)N1CCC[C@H]1C(=O)N[C@H](C(=O)N[C@@H](CCCCN)C(=O)N[C@@H](CC(C)C)C(=O)N[C@@H](CCCCNC(=O)COCCOCCNC(=O)COCCOCCNC(=O)CC[C@H](NC(=O)CCCCCCCCCCCCCCCCC(=O)O)C(=O)O)C(=O)N[C@@H](CCC(N)=O)C(=O)N[C@H](C(=O)N[C@@H](CC(C)C)C(=O)N[C@@H](CC(C)C)C(=O)N[C@@H](CCC(=O)O)C(=O)N[C@@H](CCC(N)=O)C(=O)N[C@@H](CCC(=O)O)C(=O)N[C@@H](CCCNC(=N)N)C(=O)N[C@@H](CCC(N)=O)C(=O)N[C@@H](CCCCN)C(=O)NC(C)(C)C(=O)N[C@@H](CCC(N)=O)C(=O)N[C@@H](CCCNC(=N)N)C(=O)N[C@@H](CCC(=O)O)C(=O)N[C@@H](CCC(N)=O)C(=O)N[C@@H](C)C(=O)N[C@@H](CCC(=O)O)C(=O)N[C@H](C(=O)N[C@@H](CC(N)=O)C(=O)N[C@@H](CCCCN)C(=O)N[C@@H](CCC(N)=O)C(=O)N[C@H](C(=O)N[C@@H](CC(C)C)C(=O)N[C@@H](CCC(=O)O)C(=O)N[C@@H](CCCNC(=N)N)C(=O)N[C@H](C(N)=O)C(C)C)[C@@H](C)CC)[C@@H](C)O)[C@@H](C)CC)[C@@H](C)CC)C(C)C)C(C)C) [peptide of SEQ ID NO: 106] | > 100 | 5.1
4 | IVLSLDVPIKLK([AEEA-AEEA-γGlu-C18 diacid])QILLKQERQK[Aib]QRQQAETNKQILAQV-NH2 (N-terminus assumed; SMILES CC[C@H](C)[C@H](N)C(=O)N[C@H](C(=O)N[C@@H](CC(C)C)C(=O)N[C@@H](CO)C(=O)N[C@@H](CC(C)C)C(=O)N[C@@H](CC(=O)O)C(=O)N[C@H](C(=O)N1CCC[C@H]1C(=O)N[C@H](C(=O)N[C@@H](CCCCN)C(=O)N[C@@H](CC(C)C)C(=O)N[C@@H](CCCCNC(=O)COCCOCCNC(=O)COCCOCCNC(=O)CC[C@H](NC(=O)CCCCCCCCCCCCCCCCC(=O)O)C(=O)O)C(=O)N[C@@H](CCC(N)=O)C(=O)N[C@H](C(=O)N[C@@H](CC(C)C)C(=O)N[C@@H](CC(C)C)C(=O)N[C@@H](CCCCN)C(=O)N[C@@H](CCC(N)=O)C(=O)N[C@@H](CCC(=O)O)C(=O)N[C@@H](CCCNC(=N)N)C(=O)N[C@@H](CCC(N)=O)C(=O)N[C@@H](CCCCN)C(=O)NC(C)(C)C(=O)N[C@@H](CCC(N)=O)C(=O)N[C@@H](CCCNC(=N)N)C(=O)N[C@@H](CCC(N)=O)C(=O)N[C@@H](CCC(N)=O)C(=O)N[C@@H](C)C(=O)N[C@@H](CCC(=O)O)C(=O)N[C@H](C(=O)N[C@@H](CC(N)=O)C(=O)N[C@@H](CCCCN)C(=O)N[C@@H](CCC(N)=O)C(=O)N[C@H](C(=O)N[C@@H](CC(C)C)C(=O)N[C@@H](C)C(=O)N[C@@H](CCC(N)=O)C(=O)N[C@H](C(N)=O)C(C)C)[C@@H](C)CC)[C@@H](C)O)[C@@H](C)CC)[C@@H](C)CC)C(C)C)C(C)C) [peptide of SEQ ID NO: 110] | > 100 | 5.4

Now from value to binder:

Row | EC50 [nM] 0% HSA (cAMP, HTRF) [nM] | Emax (%) (100% = Sauvagine at 100 nM) | Binder
5 | > 100 | -6 | IVLSLDVPIKLK([AEEA-AEEA-γGlu-C18 diacid])QILLKQERQK[Aib]QRQQAEKNKQILAQV-NH2 (N-terminus assumed; SMILES CC[C@H](C)[C@H](N)C(=O)N[C@H](C(=O)N[C@@H](CC(C)C)C(=O)N[C@@H](CO)C(=O)N[C@@H](CC(C)C)C(=O)N[C@@H](CC(=O)O)C(=O)N[C@H](C(=O)N1CCC[C@H]1C(=O)N[C@H](C(=O)N[C@@H](CCCCN)C(=O)N[C@@H](CC(C)C)C(=O)N[C@@H](CCCCNC(=O)COCCOCCNC(=O)COCCOCCNC(=O)CC[C@H](NC(=O)CCCCCCCCCCCCCCCCC(=O)O)C(=O)O)C(=O)N[C@@H](CCC(N)=O)C(=O)N[C@H](C(=O)N[C@@H](CC(C)C)C(=O)N[C@@H](CC(C)C)C(=O)N[C@@H](CCCCN)C(=O)N[C@@H](CCC(N)=O)C(=O)N[C@@H](CCC(=O)O)C(=O)N[C@@H](CCCNC(=N)N)C(=O)N[C@@H](CCC(N)=O)C(=O)N[C@@H](CCCCN)C(=O)NC(C)(C)C(=O)N[C@@H](CCC(N)=O)C(=O)N[C@@H](CCCNC(=N)N)C(=O)N[C@@H](CCC(N)=O)C(=O)N[C@@H](CCC(N)=O)C(=O)N[C@@H](C)C(=O)N[C@@H](CCC(=O)O)C(=O)N[C@@H](CCCCN)C(=O)N[C@@H](CC(N)=O)C(=O)N[C@@H](CCCCN)C(=O)N[C@@H](CCC(N)=O)C(=O)N[C@H](C(=O)N[C@@H](CC(C)C)C(=O)N[C@@H](C)C(=O)N[C@@H](CCC(N)=O)C(=O)N[C@H](C(N)=O)C(C)C)[C@@H](C)CC)[C@@H](C)CC)[C@@H](C)CC)C(C)C)C(C)C) [peptide of SEQ ID NO: 117]
6 | > 100 | 0.8 | IVLSLDVPIKLK([AEEA-AEEA-γGlu-C18 diacid])QILLKQERQK[Aib]QREKAEKNKQILAQV-NH2 (N-terminus assumed; SMILES CC[C@H](C)[C@H](N)C(=O)N[C@H](C(=O)N[C@@H](CC(C)C)C(=O)N[C@@H](CO)C(=O)N[C@@H](CC(C)C)C(=O)N[C@@H](CC(=O)O)C(=O)N[C@H](C(=O)N1CCC[C@H]1C(=O)N[C@H](C(=O)N[C@@H](CCCCN)C(=O)N[C@@H](CC(C)C)C(=O)N[C@@H](CCCCNC(=O)COCCOCCNC(=O)COCCOCCNC(=O)CC[C@H](NC(=O)CCCCCCCCCCCCCCCCC(=O)O)C(=O)O)C(=O)N[C@@H](CCC(N)=O)C(=O)N[C@H](C(=O)N[C@@H](CC(C)C)C(=O)N[C@@H](CC(C)C)C(=O)N[C@@H](CCCCN)C(=O)N[C@@H](CCC(N)=O)C(=O)N[C@@H](CCC(=O)O)C(=O)N[C@@H](CCCNC(=N)N)C(=O)N[C@@H](CCC(N)=O)C(=O)N[C@@H](CCCCN)C(=O)NC(C)(C)C(=O)N[C@@H](CCC(N)=O)C(=O)N[C@@H](CCCNC(=N)N)C(=O)N[C@@H](CCC(=O)O)C(=O)N[C@@H](CCCCN)C(=O)N[C@@H](C)C(=O)N[C@@H](CCC(=O)O)C(=O)N[C@@H](CCCCN)C(=O)N[C@@H](CC(N)=O)C(=O)N[C@@H](CCCCN)C(=O)N[C@@H](CCC(N)=O)C(=O)N[C@H](C(=O)N[C@@H](CC(C)C)C(=O)N[C@@H](C)C(=O)N[C@@H](CCC(N)=O)C(=O)N[C@H](C(N)=O)C(C)C)[C@@H](C)CC)[C@@H](C)CC)[C@@H](C)CC)C(C)C)C(C)C) [peptide of SEQ ID NO: 116]
